According to patent US20130172283A1, “LYOPHILIZED FORMULATION OF PECTIN-ADRIAMYCIN CONJUGATE AND PREPARATION METHOD THEREOF” (CHONGQING LUMMY PHARMACEUTICAL CO., LTD., priority 2010, published 2013):

How the values were obtained:
[1] = monitoring of drug loading rate in long-term storage (UV absorbance at 480 nm); assay type: physicochemical; conditions: initial, bulk drug
Experimental: 10.7 mg adriamycin hydrochloride was precisely weighed and placed in a 100 mL volumetric flask, diluted with sterile water for injection to volume as stock solution, and underwent ultrasonic treatment for 5 min for even mixing; 0.2 ml, 0.4 ml, 0.8 ml, 1.2 ml, 1.6 ml and 2 ml adriamycin hydrochloride stock solution were pipetted and placed in 5 ml volumetric flasks respectively, diluted with sterile water for injection to volume, and shook up. Using ultraviolet spectrophotometry, absorbance A values of adriamycin solution were determined at the series of concentration gradients at 480 nm, and linear regression was performed by taking absorbance A as a vertical coordinate and mass concentration C (mg·mL-1) of adriamycin as horizontal coordinate to obtain an equation: A=0.0178C+0.0284, R2=0.9994 (n=3).
1 mL PAC nanosuspension (prepared according to a preferable solution) was precisely pipetted and placed in a 50 mL volumetric flask (concentration of the PAC nanosuspension was 7.76 mg/mL), diluted with sterile water for injection to volume and shook up, and then proper amount was pipetted to determine absorbance at 480 nm so as to obtain adriamycin concentration Cx with the standard curve. Drug loading rate of the PAC=(Cx/7.76)*100%. […]

solubility tests of PAC = assay type: physicochemical; conditions: repeated solubility tests
Source text: Insoluble drugs have two major problems in clinical application, one problem is low bioavailability due to low solubility of the drugs, and the other problem is that conventional formulation methods have certain restriction on application of the insoluble drugs.

pectin-adriamycin conjugate [PAC]
drug loading rate [1]: 25.8% | solubility (solubility tests of PAC): insoluble
